These results are taken from publication doi:10.1101/2021.05.19.444882.

Assay [1] concerns the target ChAdOx1 fiber-knob protein (chimpanzee adenovirus Y25 (ChAdV-Y25)). The experiment in a line: crystal structure.
For assay [2], the target named is ChAdOx1 hexon protein (chimpanzee adenovirus Y25 (ChAdV-Y25)). The experiment in a line: cryo-EM structure.
For assay [3], the target named is ChAdOx1 pIX (chimpanzee adenovirus Y25 (ChAdV-Y25)). The experiment in a line: cryo-EM structure.
Assay [4] has as its target ChAdOx1 penton protein (chimpanzee adenovirus Y25 (ChAdV-Y25)). The experiment in a line: cryo-EM structure.

The stoichiometry N is the number of molecules, sites or subunits per partner or assembly. The substance “ChAdOx1 fiber-knob protein (domain or fragment)” had a stoichiometry N in assay [1] of 3. Consider ChAdOx1 hexon protein (natural protein), for which, in assay [2], the stoichiometry N was determined as 3. Regarding ChAdOx1 pIX (natural protein), the stoichiometry N in assay [3] amounted to 4. In assay [4], “ChAdOx1 penton protein (natural protein)” returned a stoichiometry N of 5.
